Article PMC9064290

Biological target: α1-specific anti-SynGAP antibody (06–800)
Experiment: western blot of cell lysates, band intensity quantified
Settings: H293T cells transfected with wild-type or PBM EGFP-SynGAPα1; probed with Pan-SynGAP (D20C7) and α1-specific antibody; n = 4; parent: est. 1.0; read off a plot

ratio to parent: 0.45
Substance: EGFP-SynGAPα1 T/I; V/E (C-terminal PDZ-binding motif QTRV changed to QIRE)
